Data taken from the supplement of paper PMC5998384.

Experiments:
HeLa Kyoto [1] = experiment: solubility in G1/S (NP-40 vs SDS abundance) (log2 ratio); higher = more soluble; conditions: cell cycle stage: G1/S
HeLa Kyoto [2] = experiment: solubility change mitosis vs G1/S (difference of NP-40 vs SDS log2 ratios) (log2 ratio difference); higher = more soluble in mitosis
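Wherever solubility change mitosis vs G1/S (difference of NP-40 vs SDS log2 ratios) is given: synchronized HeLa Kyoto cells (double thymidine block for G1/S, nocodazole release for mitosis), protein amounts in NP-40 versus SDS lysates quantified by mass spectrometry, three biological replicates.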
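Wherever solubility in G1/S (NP-40 vs SDS abundance) is given: HeLa Kyoto cells arrested at G1/S by double thymidine block, proteins quantified by TMT10plex mass spectrometry in mild NP-40 versus SDS extracts, three biological replicates.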

Substance | solubility in G1/S (log2) (HeLa Kyoto [1]) | solubility change mitosis (log2) (HeLa Kyoto [2])
MASKKLGADFHGTFSYLDDVPFKTGDKFKTPAKVGLPIGFSLPDCLQVVREVQYDFSLEKKTIEWAEEIKKIEEAEREAECKIAEAEAKVNSKSGPEGDSKMSFSKTHSTATMPPPINPILASLQHNSILTPTRVSSSATKQKVLSPPHIKADFNLADFECEEDPFDNLELKTIDEKEELRNILVGTTGPIMAQLLDNNLPRGGSGSVLQDEEVLASLERATLDFKPLHKPNGFITLPQLGNCEKMSLSSKVSLPPIPAVSNIKSLSFPKLDSDDSNQKTAKLASTFHSTSCLRNGTFQNSLKPSTQSSASELNGHHTLGLSALNLDSGTEMPALTSSQMPSLSVLSVCTEESSPPNTGPTVTPPNFSVSQVPNMPSCPQAYSELQMLSPSERQCVETVVNMGYSYECVLRAMKKKGENIEQILDYLFAHGQLCEKGFDPLLVEEALEMHQCSEEKMMEFLQLMSKFKEMGFELKDIKEVLLLHNNDQDNALEDLMARAGAS [UBAP1] | 0.435 | 0.147
MNGFTPDEMSRGGDAAAAVAAVVAAAAAAASAGNGTGAGTGAEVPGAGAVSAAGPPGAAGPGPGQLCCLREDGERCGRAAGNASFSKRIQKSISQKKVKIELDKSARHLYICDYHKNLIQSVRNRRKRKGSDDDGGDSPVQDIDTPEVDLYQLQVNTLRRYKRHFKLPTRPGLNKAQLVEIVGCHFRSIPVNEKDTLTYFIYSVKNDKNKSDLKVDSGVH [SAP30] | 0.247 | 0.267
MIATPLKHSRIYLPPEASSQRRNLPMDAIFFDSIPSGTLTPVKDLVKYQNSSLKLNDHKKNQFLKMTTFNNKNIFQSTMLTEATTSNSSLDISAIKPNKDGLKNKANYESPGKIFLRMKEKVLRDKQEQPSRNSSLLEPQKSGNNETFTPNRVEKKKLQHTYLCEEKENNKSFQSDDSSLRASVQGVPLESSNNDIFLPVKQKIQCQQEKKAPLHNLTYELPTLNQEQENFLAVEARNKTLTRAQLAKQIFHSKESIVATTKSKKDTFVLESVDSADEQFQNTNAETLSTNCIPIKNGSLLMVSDSERTTEGTSQQKVKEGNGKTVPGETGLPGSMKDTCKIVLATPRLHITIPRRSKRNISKLSPPRIFQTVTNGLKKNQVVQLQEWMIKSINNNTAICVEGKLIDVTNIYWHSNVIIERIEHNKLRTISGNVYILKGMIDQISMKEAGYPNYLIRKFMFGFPENWKEHIDNFLEQLRAGEKNREKTKQKQKTGRSVRDIRKSMKNDARENQTDTAQRATTTYDFDCDNLELKSNKHSESPGATELNMCHSNCQNKPTLRFPDDQVNNTIQNGGGDDLSNQELIGKKEYKMSSKKLKIGERTNERIIKSQKQETTEELDVSIDILTSREQFFSDEERKYMAINQKKAYILVTPLKSRKVIEQRCMRYNLSAGTIKAVTDFVIPECQKKSPISKSMGTLENTFEGHKSKNKEDCDERDLLTVNRKIKISNLEKEQMLTSDFKKNTRLLPKLKKIENQVAMSFYKHQSSPDLSSEESETEKEIKRKAEVKKTKAGNTKEAVVHLRKSTRNTSNIPVILEPETEESENEFYIKQKKARPSVKETLQKSGVRKEFPITEAVGSDKTNRHPLECLPGLIQDKEWNEKELQKLHCAFASLPKHKPGFWSEVAAAVGSRSPEECQRKYMENPRGKGSQKHVTKKKPANSKGQNGKRGDADQKQTIKITAKVGTLKRKQQMREFLEQLPKDDHDDFFSTTPLQHQRILLPSFQDSEDDDDILPNMDKNPTTPSSVIFPLVKTPQCQHVSPGMLGSINRNDCDKYVFRMQKYHKSNGGIVWGNIKKKLVETDFSTPTPRRKTPFNTDLGENSGIGKLFTNAVESLDEEEKDYYFSNSDSA [MIS18BP1] | -1.77 | 1.22
MESETEPEPVTLLVKSPNQRHRDLELSGDRGWSVGHLKAHLSRVYPERPRPEDQRLIYSGKLLLDHQCLRDLLPKQEKRHVLHLVCNVKSPSKMPEINAKVAESTEEPAGSNRGQYPEDSSSDGLRQREVLRNLSSPGWENISRPEAAQQAFQGLGPGFSGYTPYGWLQLSWFQQIYARQYYMQYLAATAASGAFVPPPSAQEIPVVSAPAPAPIHNQFPAENQPANQNAAPQVVVNPGANQNLRMNAQGGPIVEEDDEINRDWLDWTYSAATFSVFLSILYFYSSLSRFLMVMGATVVMYLHHVGWFPFRPRPVQNFPNDGPPPDVVNQDPNNNLQEGTDPETEDPNHLPPDRDVLDGEQTSPSFMSTAWLVFKTFFASLLPEGPPAIAN [HERPUD1] | 0.0523 | -0.0685
MGSILSRRIAGVEDIDIQANSAYRYPPKSGNYFASHFFMGGEKFDTPHPEGYLFGENMDLNFLGSRPVQFPYVTPAPHEPVKTLRSLVNIRKDSLRLVRYKDDADSPTEDGDKPRVLYSLEFTFDADARVAITIYCQASEEFLNGRAVYSPKSPSLQSETVHYKRGVSQQFSLPSFKIDFSEWKDDELNFDLDRGVFPVVIQAVVDEGDVVEVTGHAHVLLAAFEKHMDGSFSVKPLKQKQIVDRVSYLLQEIYGIENKNNQETKPSDDENSDNSNECVVCLSDLRDTLILPCRHLCLCTSCADTLRYQANNCPICRLPFRALLQIRAVRKKPGALSPVSFSPVLAQSLEHDEHSCPFKKSKPHPASLASKKPKRETNSDSVPPGYEPISLLEALNGLRAVSPAIPSAPLYEEITYSGISDGLSQASCPLAAIDHILDSSRQKGRPQSKAPDSTLRSPSSPIHEEDEEKLSEDVDAPPPLGGAELALRESSSPESFITEEVDESSSPQQGTRAASIENVLQDSSPEHCGRGPPADIYLPALGPDSCSVGIDE [MGRN1] | -0.00834 | 0.156
MPAIAVLAAAAAAWCFLQVESRHLDALAGGAGPNHGNFLDNDQWLSTVSQYDRDKYWNRFRDDDYFRNWNPNKPFDQALDPSKDPCLKVKCSPHKVCVTQDYQTALCVSRKHLLPRQKKGNVAQKHWVGPSNLVKCKPCPVAQSAMVCGSDGHSYTSKCKLEFHACSTGKSLATLCDGPCPCLPEPEPPKHKAERSACTDKELRNLASRLKDWFGALHEDANRVIKPTSSNTAQGRFDTSILPICKDSLGWMFNKLDMNYDLLLDPSEINAIYLDKYEPCIKPLFNSCDSFKDGKLSNNEWCYCFQKPGGLPCQNEMNRIQKLSKGKSLLGAFIPRCNEEGYYKATQCHGSTGQCWCVDKYGNELAGSRKQGAVSCEEEQETSGDFGSGGSVVLLDDLEYERELGPKDKEGKLRVHTRAVTEDDEDEDDDKEDEVGYIW [SPOCK1] | -0.59 | 0.345
MQPGSSRCEEETPSLLWGLDPVFLAFAKLYIRDILDMKESRQVPGVFLYNGHPIKQVDVLGTVIGVRERDAFYSYGVDDSTGVINCICWKKLNTESVSAAPSAARELSLTSQLKKLQETIEQKTKIEIGDTIRVRGSIRTYREEREIHATTYYKVDDPVWNIQIARMLELPTIYRKVYDQPFHSSALEKEEALSNPGALDLPSLTSLLSEKAKEFLMENRVQSFYQQELEMVESLLSLANQPVIHSASSDQVNFKKDTTSKAIHSIFKNAIQLLQEKGLVFQKDDGFDNLYYVTREDKDLHRKIHRIIQQDCQKPNHMEKGCHFLHILACARLSIRPGLSEAVLQQVLELLEDQSDIVSTMEHYYTAF [OBFC1] | 0.0155 | -0.0863
MSTEADEGITFSVPPFAPSGFCTIPEGGICRRGGAAAVGEGEEHQLPPPPPGSFWNVESAAAPGIGCPAATSSSSATRGRGSSVGGGSRRTTVAYVINEASQGQLVVAESEALQSLREACETVGATLETLHFGKLDFGETTVLDRFYNADIAVVEMSDAFRQPSLFYHLGVRESFSMANNIILYCDTNSDSLQSLKEIICQKNTMCTGNYTFVPYMITPHNKVYCCDSSFMKGLTELMQPNFELLLGPICLPLVDRFIQLLKVAQASSSQYFRESILNDIRKARNLYTGKELAAELARIRQRVDNIEVLTADIVINLLLSYRDIQDYDSIVKLVETLEKLPTFDLASHHHVKFHYAFALNRRNLPGDRAKALDIMIPMVQSEGQVASDMYCLVGRIYKDMFLDSNFTDTESRDHGASWFKKAFESEPTLQSGINYAVLLLAAGHQFESSFELRKVGVKLSSLLGKKGNLEKLQSYWEVGFFLGASVLANDHMRVIQASEKLFKLKTPAWYLKSIVETILIYKHFVKLTTEQPVAKQELVDFWMDFLVEATKTDVTVVRFPVLILEPTKIYQPSYLSINNEVEEKTISIWHVLPDDKKGIHEWNFSASSVRGVSISKFEERCCFLYVLHNSDDFQIYFCTELHCKKFFEMVNTITEEKGRSTEEGDCESDLLEYDYEYDENGDRVVLGKGTYGIVYAGRDLSNQVRIAIKEIPERDSRYSQPLHEEIALHKHLKHKNIVQYLGSFSENGFIKIFMEQVPGGSLSALLRSKWGPLKDNEQTIGFYTKQILEGLKYLHDNQIVHRDIKGDNVLINTYSGVLKISDFGTSKRLAGINPCTETFTGTLQYMAPEIIDKGPRGYGKAADIWSLGCTIIEMATGKPPFYELGEPQAAMFKVGMFKVHPEIPESMSAEAKAFILKCFEPDPDKRACANDLLVDEFLKVSSKKKKTQPKLSALSAGSNEYLRSISLPVPVLVEDTSSSSEYGSVSPDTELKVDPFSFKTRAKSCGERDVKGIRTLFLGIPDENFEDHSAPPSPEEKDSGFFMLRKDSERRATLHRILTEDQDKIVRNLMESLAQGAEEPKLKWEHITTLIASLREFVRSTDRKIIATTLSKLKLELDFDSHGISQVQVVLFGFQDAVNKVLRNHNIKPHWMFALDSIIRKAVQTAITILVPELRPHFSLASESDTADQEDLDVEDDHEEQPSNQTVRRPQAVIEDAVATSGVSTLSSTVSHDSQSAHRSLNVQLGRMKIETNRLLEELVRKEKELQALLHRAIEEKDQEIKHLKLKSQPIEIPELPVFHLNSSGTNTEDSELTDWLRVNGADEDTISRFLAEDYTLLDVLYYVTRDDLKCLRLRGGMLCTLWKAIIDFRNKQT [MAP3K5] | -1.04 | 0.654
MNFTPTHTPVCRKRTVVSKRGVAVSGPTKRRGMADSLESTPLPSPEDRLAKLHPSKELLEYYQKKMAECEAENEDLLKKLELYKEACEGQHKLECDLQQREEEIAELQKALSDMQVCLFQEREHVLRLYSENDRLRIRELEDKKKIQNLLALVGTDAGEVTYFCKEPPHKVTILQKTIQAVGECEQSESSAFKADPKISKRRPSRERKESSEHYQRDIQTLILQVEALQAQLGEQTKLSREQIEGLIEDRRIHLEEIQVQHQRNQNKIKELTKNLHHTQELLYESTKDFLQLRSENQNKEKSWMLEKDNLMSKIKQYRVQCKKKEDKIGKVLPVMHESHHAQSEYIKSLKDKLVQEKKLSNMYQEQCISLEEELARIREEEGMRREIFKDRTNKMGKRLQIMTKRYEALERRRILEVEGFKTDIKVLRQKLKDLEQMLYKATVNARANQDLALLCEVRDSNRRAHKIQGELKNLKSKVFGLENELRLC [CCDC77] | -0.0939 | 0.373
MMWRPSVLLLLLLLRHGAQGKPSPDAGPHGQGRVHQAAPLSDAPHDDAHGNFQYDHEAFLGREVAKEFDQLTPEESQARLGRIVDRMDRAGDGDGWVSLAELRAWIAHTQQRHIRDSVSAAWDTYDTDRDGRVGWEELRNATYGHYAPGEEFHDVEDAETYKKMLARDERRFRVADQDGDSMATREELTAFLHPEEFPHMRDIVIAETLEDLDRNKDGYVQVEEYIADLYSAEPGEEEPAWVQTERQQFRDFRDLNKDGHLDGSEVGHWVLPPAQDQPLVEANHLLHESDTDKDGRLSKAEILGNWNMFVGSQATNYGEDLTRHHDEL [RCN3] | 0.0765 | 0.262
TTC28 | 0.0118 | -0.133
